From patent US20230287096A1 (published 2023) come the findings set out here.

As usually defined, the Kd is the free concentration of one partner at which half of the binding sites on the other are occupied at equilibrium, for simple one-to-one binding.

Assay [1] concerns the target Recombinant human FAM19A5 protein (human, UniProt Q7Z5A7 44-132). Briefly: ELISA. (In general: ELISA stands for enzyme-linked immunosorbent assay.)
For assay [2], the target named is T1, FAM19A5 epitope fragment F2, conjugated to BSA (human, conjugated to BSA).
T1 peptide: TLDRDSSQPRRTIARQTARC
Briefly: ELISA, BSA-conjugated peptide coated on plate. Here is the method: Overlapping peptide fragments (F1-F6, See FIG. 1) of the human FAM19A5 protein were synthesized and conjugated to BSA. Binding of the different anti-FAM19A5 antibodies to the BSA-conjugated peptide fragments F1-F6 was determined by ELISA assay. Briefly, FAM19A5 fragment F1-F6 (diluted to 1 μg/mL in 50 mM carbonate buffer (Biosesang) or to 20 μg/mL for high concentration analysis) were used to coat the wells of 96-well immuno plates (Thermo Scientific) (100 μL/well) overnight at 4° C. and then subsequently washed twice in 1×PBS. The plates were then blocked with the blocking buffer (100 μL/well) for 1 hour at room temperature. During the 1-hour incubation, the relevant anti-FAM19A5 antibodies were diluted to 1 μg/mL (or 20 μg/mL for high concentration analysis) in the diluent buffer. Once the plates were washed (2×using 1×PBS), the diluted anti-FAM19A5 antibodies were added to the appropriate wells, and the plates were incubated at room temperature for 1 hour. The plates were subsequently washed for a total of five times using the washing buffer. […] The absorption value of each of the wells was detected at 492 nm using a 96-well microplate reader (Molecular Device).

In another assay the target is T2, F2-04-BSA (#4) (human, conjugated to BSA).
T2 construct: also called mutant F2 peptide fragment #4
T2 peptide: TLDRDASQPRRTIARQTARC
In words: ELISA, BSA-conjugated mutant F2 peptide coated on plate.

The target of a further assay is T3, F2-03-BSA (#3) (human, conjugated to BSA).
T3 construct: also called mutant F2 peptide fragment #3
T3 peptide: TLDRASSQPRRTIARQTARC
The assay is described as above.

The target in another assay is T4, F2-13-BSA (#13) (human, conjugated to BSA).
T4 construct: also called mutant F2 peptide fragment #13
T4 peptide: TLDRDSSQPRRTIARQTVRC
The description is as above.

In another assay the target is T5, F2-01-BSA (#1) (human, conjugated to BSA).
T5 construct: also called mutant F2 peptide fragment #1
T5 peptide: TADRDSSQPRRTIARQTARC
Described as above.

The target in a further assay is T6, F2-09-BSA (#9) (human, conjugated to BSA).
T6 construct: also called mutant F2 peptide fragment #9
T6 peptide: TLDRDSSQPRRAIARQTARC
The assay is described as above.

In a further assay the target is T7, F2-11-BSA (#11) (human, conjugated to BSA).
T7 construct: also called mutant F2 peptide fragment #11
T7 peptide: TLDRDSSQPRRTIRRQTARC
The description is as above.

The target of the next assay is T8, F2-05-BSA (#5) (human, conjugated to BSA).
T8 construct: also called mutant F2 peptide fragment #5
T8 peptide: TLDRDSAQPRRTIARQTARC
The assay is described as above.

The target of another assay is T9, F2-07-BSA (#7) (human, conjugated to BSA).
T9 construct: also called mutant F2 peptide fragment #7
T9 peptide: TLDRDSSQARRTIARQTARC
The description is as above.

The next assay has as its target T10, F2-08-BSA (#8) (human, conjugated to BSA).
T10 construct: also called mutant F2 peptide fragment #8
T10 peptide: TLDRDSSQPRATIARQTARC
Described as above.

The target in a further assay is T11, F2-06-BSA (#6) (human, conjugated to BSA).
T11 construct: also called mutant F2 peptide fragment #6
T11 peptide: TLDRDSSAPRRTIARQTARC
The assay is described as above.

The target in a further assay is T12, F2-02-BSA (#2) (human, conjugated to BSA).
T12 construct: also called mutant F2 peptide fragment #2
T12 peptide: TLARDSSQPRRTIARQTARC
Described as above.

Another assay addresses T13, F2-12-BSA (#12) (human, conjugated to BSA).
T13 construct: also called mutant F2 peptide fragment #12
T13 peptide: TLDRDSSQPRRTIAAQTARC
The assay is described as above.

The next assay addresses T14, F2-10-BSA (#10) (human, conjugated to BSA).
T14 construct: also called mutant F2 peptide fragment #10
T14 peptide: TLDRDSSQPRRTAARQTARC
The description is as above.

Chain of Recombinant human FAM19A5 protein (Q7Z5A7 other isoform, or with tags, fused parts or gaps): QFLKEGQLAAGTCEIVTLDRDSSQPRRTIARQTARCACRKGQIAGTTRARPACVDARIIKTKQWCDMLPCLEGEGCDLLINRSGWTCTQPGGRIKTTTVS

B1: Anti-FAM19A5 antibody 2-13 (antibody, V domains shown)
VH: AVTLDESGGGLQTPGGALSLVCKASGFTFSSHGMFWVRQTPGKGLEYVAEITNDGSGTNYGSAVKGRATISRDNGQSTVRLQLNNLRAEDTGTYFCARSTYECPGGFSCWGDTGQIDAWGHGTEVIVSS
VL: ALTQPSSVSANPGETVKITCSGGSYSYGWFQQKSPGSALVTVIYWDDERPSDIPSRFSGALSGSTNTLTITGVQADDEAVYFCGTEDISGTAGVFGAGTTLTVL
notes: Chicken-derived scFv clone converted to a full antibody; also called Anti-FAM19A5 ("2-13")
Take B1: the Kd in [1] was about 2.77 nM.

B2: Anti-FAM19A5 antibody 1-65 (antibody, V domains shown)
VH: AVTLDESGGGLQTPGGALSLVCKASGFTFSSYQMGWVRQAPGKGLEWVGVINKSGSDTSYGSAVKGRATISRDNGQSTVRLQLNNLRAEDTGTYFCAKGSASYITAATIDAWGHGTEVIVSS
VL: ALTQPSSVSANPGETVKITCSGGGSSGYGYGWYQQKSPSSAPLTVIYWNDKRPSDIPSRFSGSKSGSTHTLTITGVQAEDEAVYFCGNDDYSSDSGYVGVFGAGTTLTVL
notes: VL = 39 to 42)
B2: in assay [1], the dissociation constant (Kd) came to 0.1 nM.

B3: Anti-FAM19A5 antibody 3-2 (antibody, V domains shown)
VH: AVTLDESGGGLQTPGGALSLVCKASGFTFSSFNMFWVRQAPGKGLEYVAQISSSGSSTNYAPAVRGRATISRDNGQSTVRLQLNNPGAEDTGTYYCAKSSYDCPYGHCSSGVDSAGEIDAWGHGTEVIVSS
VL: ALTQPSSVSANPGETVKITCSGGGSYAGSYYYGWYQQKAPGSAPVTLIYESNKRPSDIPSRFSGSTSGSTATLTITGVQADDEAIYYCGSWDSSNGGIFGAGTTLTVL
notes: The text reports the results for '3-2' without separating them, so one molecule is written; Only the variable domains are tied to the name; also called h3-2; m3-2
With B3, the binding result (in [2]; with F2-04-BSA (#4); with F2-03-BSA (#3); in the assay with F2-13-BSA (#13); with F2-01-BSA (#1); with F2-09-BSA (#9)) was “binds” in each case. The binding result in the assay with F2-11-BSA (#11), in the assay with F2-05-BSA (#5), with F2-07-BSA (#7), with F2-08-BSA (#8), with F2-06-BSA (#6) and in the assay with F2-02-BSA (#2) was “binds” in each case. In addition, the binding result with F2-12-BSA (#12) and with F2-10-BSA (#10) was “binds” in each case. In addition, the dissociation constant (Kd) in assay [1] came to 0.12 nM.

B4: Anti-FAM19A5 antibody 1-28 (antibody, V domains shown)
VH: AVTLDESGGGLQTPGGALSLVCKASGFDFSDYGMGWVRQAPGKGLEWVAAIRSDGSNPSYGSAVKGRATISKDNGRSTVRLQLNNLRAEDTATYYCAKDGNGYCALDAYRSGGYSCGVYPGSIDAWGHGTEVIVSS
VL: ALTQPSSVSANLEGTVEITCSGSGYGYGWYQQKSPGSAPVTVIYQNDKRPSDIPSRFSGSKSGSTGTLTITGVQVEDEAVYYCGSEDSSTLAGIFGAGTTLTVL
notes: also called Anti-FAM19A5 ("1-28")
With B4, the Kd in assay [1] is 0.17 nM. Also, the binding result with F2-04-BSA (#4), in the assay with F2-13-BSA (#13), with F2-01-BSA (#1), in the assay with F2-09-BSA (#9), with F2-11-BSA (#11) and with F2-05-BSA (#5) was “binds” each time. Besides, the binding result with F2-07-BSA (#7), with F2-08-BSA (#8), with F2-06-BSA (#6), in the assay with F2-02-BSA (#2), with F2-12-BSA (#12) and in the assay with F2-10-BSA (#10) was “binds” each time.
